Measured values as given in US20260258115A1 (MAPP BIOPHARMACEUTICAL, published 2026).
Numbering of substitutions follows the chain as printed.

B1: ADI-41467 (antibody, V domains shown)
VH: EVQLVESGGGLVKPGGSLRLSCAASGFSFSSYNMNWVRQAPGKGLEWVSSISGGSSFVNYADSVKGRFTISRDNAKNSLYLQMSSLKAEDTAIYYCARDPVYCSAASCSAYFDSWGQGSLVTVSS
VL: QSVLTQPPSVSGAPGQRVTISCTGSSSNIGAGYDVHWYQQLPGTAPKLLIYGNNNRPSGVPDRFSGFKSGSSASLAITGLQAEDEADYYCQSYDIGLSDSHVVFGGGTQLTVL
B2: ADI-41505 (antibody, V domains shown)
VH: QVQLQQSGAGLLKPSETLSLTYVVYGGSFSGYYWSWIRQPPGKGLEWVGDINHSTTTNYNPSLESRITISIDTSKNQFSLNLSSVTAADSAVYYCARGPKECTSSSCDRFGVDYFYYGMDVWGRGTTVTVSS
VL: QSVLTQPPSVSGAPGQRVTISCTGSSANIGAGYDVHWYQQFPGTAPKLLIFGNSNRPSGVPDRFSGSKSGTSASLAITGLQAGDEADYYCQSYDGTLGGWVFGGGTQLTVL
B3: ADI-41515 (antibody, V domains shown)
VH: QVQLVESGGGLVQPGGSLRLSCAASGFTFSDYAMSWVRQAPGKGLVWVSSISGSGKFTYYEDSLRGRVTISRDNSKNTVYLHMNSLRTEDTALYYCARLRIPVINEVDGAMDVWGQGTTVTVSS
VL: SYELTQLPSVSVSPGQTARITCSGDALPKKFAYWYQQKSGQAPVLVIYEDTGRPSGIPERFSGSTSGTTATLTINGAQVEDEGDYYCYSADSSDNQGVFGGGTKVTVL
B4: ADI-41518 (antibody, V domains shown)
VH: EVQLVESGGGLVKPGGSLRLSCAASGFTFSSYSMNWVRQAPGKGLEWVSSISSSSSYINYADSVKGRFTISRDNAKNSLYLQMNSLRAEDTALYYCARDLGYCSDTSCTPGIGYWGQGTLVTVSS
VL: B2 VL with S2P, A27S, F41L, F51Y, G83E, G95S, T96G, G98S, G99P, Q107K
B5: ADI-41519 (antibody, V domains shown)
VH: QVQLVESGPGLVKPSETLSLTCNVSGGSIITSGSYWGWIRQPPGKGLTWIGSISYSGTTYYNPSLRSRLTISLDTSRNHFSLQLTSVSAADTAVYYCARAFYEVWTGSEIPGDFDRWGQGTLVTVSS
VL: EIVLTQSPGTLSLSPGERATLSCRASQSVSSSYLAWYQQKPGQAPRLLIYGASSRAIDIPDRFSGSGSGTDFTLTISRLEPEDFAVYYCQQFRRSPWTFGQGTKVDIK
B6: ADI-41520 (antibody, V domains shown)
VH: EVQLLESGGGVVRPGGSLRLSCAASGFSFDDYGMTWVRQAPGKGLEWVSGINWNGISTDYADSVKGRFTISRDNAKNSVYLQMNSLRAEDTALYYCARIGGVVVIASTAYYYGMDVWGQGTTVTVSS
VL: DIQLTQSPSSLSAYVGDRVTITCRASQSIRNHLNWYQQKPGKAPQLLIYTASSLQDGVPSRFSGSGSGTDFTLAISSLQPEDFATYYCQQSHSMPPTFGQGTRLEIK
B7: ADI-41522 (antibody, V domains shown)
VH: QVQLVQSGAEVKKPGSSVKVSCKASGGTFNNFPISWVRQAPGQGLEWMGGIIPMFGRANYAQKFQGRVTITADESTTTVYMALRSLRSEDTAVYYCARPDYDVLTGFEGAFDIWGQGTMVTVSS
VL: QSALTQPASVSGSPGQLITISCTGTSRDVGGYNYVSWYQQHPGKAPKLMIYDVTNRPSGVSNRFSGSKSGNTASLTISGLQSEDEADYYCSSYTSTTTWVFGGGTKLTVL
B8: ADI-41542 (antibody, V domains shown)
VH: EVQLVESGVAVKKPGESLKISCKGSGYNFDSFWIGWVRQLPGKGLEWMGIIFPGDSDTRYGPSFQGQVTISADKSINTAYLQWRSLKASDTAMYYCARHGLGGYDNSGYNLWGHGTMVTVSS
VL: DIVMTQSPSSLSASVGDRVTITCQASHDISTSLNWYQQKPGKAPNLLISDASTLERGVPSRFSGGGSGTEFTFTISSLQPEDIATYYCQQFENLPITFGQGTRLEIK
B9: ADI-43643 (antibody, V domains shown)
VH: QVQLVQSGGGLVKPGGSLRLSCAASGFTFSSYSMNWVRQAPGKGLEWVSSISSSSSYIYYADSVKGRFTISRDNAKNSLYLQMNSLRAEDTAVYYCARVLSGYSYGYDYWGQGTLVTVSS
VL: QSVLTQPPSVSGAPGQRVTISCTGSSSNIGAGYDVHWYQQLPGTAPKLLIYGNSNRPSGVPDRFSGSKSGTSASLAITGLQAEDEADYYCQSYDSSLSGSVFGTGTKVTVL
B10: ADI-19488 (antibody, V domains shown)
VH: QVQLVQSGAEVKKPGASVKVSCKVSGYTLTELSMHWVRQAPGKGLEWMGGFDPEDGETIYAQKFQGRVTMTEDTSTDTAYMELSSLRSEDTAVYYCATARFLEWLSGTNWFDPWGQGTLVTVSS
VL: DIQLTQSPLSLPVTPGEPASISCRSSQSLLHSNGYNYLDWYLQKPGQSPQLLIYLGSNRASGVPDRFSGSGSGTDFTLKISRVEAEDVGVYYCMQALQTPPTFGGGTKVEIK
notes: full-length IgG; also called Ab 190
B11: ADI-14349 (antibody, V domains shown)
VH: EVQLVESGAEVKKPGSSVKVSCKASGGTLSSYAFSWVRQAPGQGLEWMGGVIPISATSDYAQKFQGRVTITADESTSTVYMELRSLRSEDTAVYYCARDTRYSSGWFYDYWGQGTLVTVSS
VL: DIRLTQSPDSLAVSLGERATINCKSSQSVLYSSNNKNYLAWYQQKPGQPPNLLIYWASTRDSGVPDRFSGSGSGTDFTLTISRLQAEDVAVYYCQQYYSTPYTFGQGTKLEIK
notes: full-length IgG; also called Ab 17
B12: ADI-14370 (antibody, V domains shown)
VH: EVQLVESGGGVVQPGKSLRLSCAASGFSFSTFAMHWVRQAPGKGLEWVAVISYDGSNKFYADSVKGRFTISRDSSKNTLYLQMNSLRAEDTAVYYCARGGYSSGWYVTHFDYWGQGTLVTVSS
VL: QSVLTQPPSASGSPGQSVTISCTGTSSDVGGYNYVSWYQQHPGKAPKLMIYEVSKRPSGVPDRFSGSKSGNTASLTVSGLQAEDEADYYCSSYAGSNNLYVFGTGTKLTVL
notes: full-length IgG; also called Ab 38
B13: ADI-14374 (antibody, V domains shown)
VH: QVQLVQSGGVVVQPGGSLRLSCAASGFNFDDFTMHWVRQAPGKGLEWVSLITWDGGITYYADSVKGRFTISRDNGKNSLYLRMNSLRTEDTALYYCAKDGDRYSGYAFLDYWGQGTLVTVSS
VL: SYELTQPPSVSVAPGKTARLTCGGNNIGSESVHWYQQRPGQAPVLVSYYNGDRPSGIAERISASKSGNTATLTIYRVEAGDEADYYCQVWHSSSDHFVFGTGTQLTVL
notes: full-length IgG; also called Ab 42
B14: ADI-14377 (antibody, V domains shown)
VH: EVQLVESGGGVVQPGGSLRLSCAVSGITFSSYGMHWVRQAPGKGLEWVAFIRYDGSNKYYGDSLRGRFTISRDNSKNTLYLQMNSLRAEDTAVYYCAKDAVGIGGYYGLDVWGQGTTVTVSS
VL: DIQMTQSPSSLSASVGDRVTITCRASQGIRNDLGWYQQKPGKAPKRLIYAASSLQSGVPSRFSGSGSGTEFTLTISSLQPEDFATYYCLQHNGYPWTFGQGTKVEIK
notes: full-length IgG; also called Ab 45
B15: ADI-14378 (antibody, V domains shown)
VH: QVQLVESGGGLVQPGGSLRLSCAASGFTFSSYWMHWVRQAPGKGLVWVSRINSDGSSPTYADSVKGRFTISRDNAKNTVFLQMNSLRAEDTAVYYCARESWELIRGDAFDIWGQGTTVTVSS
VL: DIQMTQSPSSLSASVGDRVTITCRASQSISSSLNWYQQKPGKAPNLLIYAASTLQSGVPSRFSGSGSGTDFTLTISSLQPEDFATYYCQQSYRTPRTFGQGTKVEIK
notes: full-length IgG; also called Ab 46
B16: ADI-14388 (antibody, V domains shown)
VH: EVQLVESGGGVVQPGRSLRLSCAASGFTFSSYPMHWVRQAPGKGLEWVAVISYDGSNKYYADSVKGRFTISRDNSKNTLYLQMNSLRAEDTAVYSCARAQSAAIFDHWGQGTLVTVSS
VL: QAVVTQEPSLTVSPGGTVTLTCASSTGAVTSGYYPNWFQQKPGQAPRALIYTTSKRHSWTPARFSGSLLGGKAALTLSGVQPEDEADYYCLLYYGGANWVFGGGTKLTVL
notes: full-length IgG; also called Ab 55
B17: ADI-14391 (antibody, V domains shown)
VH: QVQLVESGGGLVQPGGSLRLSCAAAGFSFSNYAMSWVRQAPGKGLEWVAVISGNAGSTYYAESVKGRFTISRDNSKNTLHLQMNSLRGEDTAVYYCAKPPGIAVAGEYYWYFDLWGRGTLVTVSS
VL: QVQLMQPPSVSVSPGQTARITCSGDALPRENAYWYQQKSGQAPVLVIYEDSKRPSGIPERFSGSSSGTMATLTITGAQVEDEADYYCYSTDTSAYHWVFGGGTKLTVL
notes: full-length IgG; also called Ab 58
B18: ADI-19487 (antibody, V domains shown)
VH: QVTLKESGPALVKPTQTLTLTCTFSGLSISTSGMCVSWIRQPPGKALEWLARIDWDDDKYYSTSLKTRLTISKDTSKNQVVLTMTNMDPVDTATYYCARINYYDSSGYYVYYFDYWGQGTLVTVSS
VL: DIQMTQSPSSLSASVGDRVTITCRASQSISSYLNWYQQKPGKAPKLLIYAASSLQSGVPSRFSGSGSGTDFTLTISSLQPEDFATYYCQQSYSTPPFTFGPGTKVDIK
B19: ADI-19432 (antibody, V domains shown)
VH: QVQLVQSGAEVKKPGASVKVSCKVSGYTLTELSMHWVRQAPGKGLEWMGGFDPEDGETIYAQKFQGRVTMTEDTSTDTAYMELSSLRSEDTAVYYCATEREEGGYSGYDDAFDIWGQGTMVTVSS
VL: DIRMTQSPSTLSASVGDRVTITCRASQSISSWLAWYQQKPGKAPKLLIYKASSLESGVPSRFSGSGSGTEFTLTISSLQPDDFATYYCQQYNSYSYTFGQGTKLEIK
notes: full-length IgG
B20: ADI-19433 (antibody, V domains shown)
VH: EVQLVESGGGLVKPGGSLRLSCAASGFTFSSYSMNWVRQAPGKGLEWVSSISSSSSYIYYADSVKGRFTISRDNAKNSLYLQMNSLRAEDTAVYYCARAPPSVGGWYFDLWGRGTLVTVSS
VL: QPVLTQPPSVSGAPGQRVTISCTGSSSNIGAGYDVHWYQQLPGTAPKLLIYGNSNRPSGVPDRFSGSKSGTSASLAITGLQAEDEADYYCQSYDSSLVFGGGTKLTVL
notes: full-length IgG

Biological target: RSV F on RSV-A2 virus (Respiratory Syncytial Virus (RSV-A2), UniProt P03420 26-574)
Experiment: cell-based or functional assay

Row | Binder | Neutralization IC50 (RSV subtype A) [µg/mL]
1 | B1 | > 25
2 | B2 | > 25
3 | B3 | > 25
4 | B4 | > 25
5 | B5 | > 25
6 | B6 | > 25
7 | B7 | > 25
8 | B8 | 0.69
9 | B9 | > 25

Biological target: T1, RSV prefusion F (preF), subtype B (respiratory syncytial virus subtype B)
T1 construct: also called Prefusion subtype B
Experiment: BLI, IgG

Row | Binder | Kd [nM]
10 | B10 | 10.7
11 | B11 | 4.07
12 | B12 | 4.18
13 | B13 | 2.09
14 | B14 | 5.28
15 | B15 | 6.1
16 | B16 | 5.5
17 | B17 | 5.36

Biological target: RSV F on RSV subtype B virus (mKate-RSV B 18537) (respiratory syncytial virus B 18537, UniProt P13843 26-574)
Experiment: cell-based or functional assay

Row | Binder | Neut IC50 subtype B [µg/mL]
18 | B18 | 7.96
19 | B10 | 3.38
20 | B11 | 1.84
21 | B12 | 1.38
22 | B13 | 0.86
23 | B14 | 2.13
24 | B15 | 21.6
25 | B16 | 3.07
26 | B17 | 22.2

Biological target: RSV F on RSV subtype A virus (mKate-RSV A2) (respiratory syncytial virus A2, UniProt P03420 26-574)
Experiment: cell-based or functional assay

Row | Binder | Neut IC50 subtype A [µg/mL]
27 | B19 | 11
28 | B20 | 1.56

Biological target: T2, RSV postfusion F (postF), subtype A (respiratory syncytial virus subtype A, UniProt P03420 26-513)
T2 construct: also called Postfusion subtype A; F deltaFP
Experiment: BLI

Row | Binder | binding result
29 | B19 | no binding
30 | B20 | no binding
31 | B10 | no binding
32 | B11 | no binding
33 | B14 | no binding
34 | B16 | no binding
35 | B17 | no binding
